Experimental data as given in the Human Domainome abundance scans (Beltran et al. 2025).
± gives the uncertainty stated by the source.

B1: POU domain, class 3, transcription factor 4, residues 280 to 335; numbered along this chain, P49335 (parent)
chain: KKRTSIEVSVKGVLETHFLKCPKPAAQEISSLADSLQLEKEVVRVWFCNRRQKEKR

Variants of: B1
Assay: abundance fitness (aPCA) (normalised: wild type 0, dead -1); higher = more abundant; growth selection in yeast, the domain comes from the species named
Conditions: Homo sapiens

Which abundance fitness does the source give for KKRTSIEVSVKGVLETHFLKCPKPAAQEISSLADSLQLEKEVVRVWFCNRWQKEKR here?
The abundance fitness was -0.221 ± 0.17.

For KKRTSIEVSVKDVLETHFLKCPKPAAQEISSLADSLQLEKEVVRVWFCNRRQKEKR, which abundance fitness is on record?
The abundance fitness was 0.288 ± 0.44.

Which abundance fitness does the source give for KKRTSIEVSVKGVLETHFLKCPKPAAMEISSLADSLQLEKEVVRVWFCNRRQKEKR here?
The abundance fitness was -0.344 ± 0.21.

For KKRTSIEVSVKGVLETHFLKCPKPAAQEISSLADSLQLEKEVVRVWFCNRRQKCKR, which abundance fitness is on record?
Its abundance fitness is -0.897 ± 0.3.

Which abundance fitness does the source give for KKRTSIEVSVKGVLETHFLKCPKPAAQEISSLADSLQLEKEVVRVWFCNRRQKWKR here?
Its abundance fitness is -0.902 ± 0.25.

Which abundance fitness does the source give for KKRTSIEVSVKGVLETHFLKCPKPAAQEISSLADSLQLEKEVVRVWFCNRRQKHKR here?
The abundance fitness was -0.906 ± 0.33.

Which abundance fitness does the source give for KKRTSIEVSVKGVLETHTLKCPKPAAQEISSLADSLQLEKEVVRVWFCNRRQKEKR here?
Its abundance fitness is -0.732 ± 0.18.

With KKRTSIEVSVKGVLETHSLKCPKPAAQEISSLADSLQLEKEVVRVWFCNRRQKEKR as the variant, how does the abundance fitness read?
Its abundance fitness is -0.719 ± 0.14.

For KKRTSIEVSVMGVLETHFLKCPKPAAQEISSLADSLQLEKEVVRVWFCNRRQKEKR, which abundance fitness is on record?
The abundance fitness was 0.17 ± 0.44.

With KKRTSIEVSVKGVLETHFLKCPKPAAQEISSLADSLQLEKEVVRVWHCNRRQKEKR as the variant, how does the abundance fitness read?
Its abundance fitness is -0.571 ± 0.38.

For KKRTSIEVSVKGVLETHFLKCPKPAAQEISSLADSLQLEKEVVRVWGCNRRQKEKR, which abundance fitness is on record?
Its abundance fitness is -0.745 ± 0.18.

Which abundance fitness does the source give for KKRTSIEVSVKGRLETHFLKCPKPAAQEISSLADSLQLEKEVVRVWFCNRRQKEKR here?
Its abundance fitness is -0.215 ± 0.14.

With KKRTSIEVSVKGFLETHFLKCPKPAAQEISSLADSLQLEKEVVRVWFCNRRQKEKR as the variant, how does the abundance fitness read?
The abundance fitness was -0.315 ± 0.4.

With KKRTSIEVSVKGVLETHFLKCQKPAAQEISSLADSLQLEKEVVRVWFCNRRQKEKR as the variant, how does the abundance fitness read?
The abundance fitness was 0.208 ± 0.19.

With KKRFSIEVSVKGVLETHFLKCPKPAAQEISSLADSLQLEKEVVRVWFCNRRQKEKR as the variant, how does the abundance fitness read?
The abundance fitness was -0.26 ± 0.25.

With KKRKSIEVSVKGVLETHFLKCPKPAAQEISSLADSLQLEKEVVRVWFCNRRQKEKR as the variant, how does the abundance fitness read?
Its abundance fitness is 0.011 ± 0.17.

For KKRTSIEVSVKGVLETHFLKCPKPAAQEISSLADSLQKEKEVVRVWFCNRRQKEKR, which abundance fitness is on record?
The abundance fitness was -0.531 ± 0.29.

For KKRTSIEVSVKGVLETHFLKCPKPAAQEISSLADSLQEEKEVVRVWFCNRRQKEKR, which abundance fitness is on record?
Its abundance fitness is -0.729 ± 0.29.

For KKRTSSEVSVKGVLETHFLKCPKPAAQEISSLADSLQLEKEVVRVWFCNRRQKEKR, which abundance fitness is on record?
The abundance fitness was -0.152 ± 0.086.

With KKRTSIEVSVKGVLETHFLYCPKPAAQEISSLADSLQLEKEVVRVWFCNRRQKEKR as the variant, how does the abundance fitness read?
Its abundance fitness is -0.788 ± 0.18.

For KKRTWIEVSVKGVLETHFLKCPKPAAQEISSLADSLQLEKEVVRVWFCNRRQKEKR, which abundance fitness is on record?
Its abundance fitness is -0.162 ± 0.14.

With KKRTSIEVSVKGVLEWHFLKCPKPAAQEISSLADSLQLEKEVVRVWFCNRRQKEKR as the variant, how does the abundance fitness read?
Its abundance fitness is -0.347 ± 0.18.

Which abundance fitness does the source give for KKRTSIEVSVKGVLELHFLKCPKPAAQEISSLADSLQLEKEVVRVWFCNRRQKEKR here?
Its abundance fitness is -0.304 ± 0.14.

With KKRTSIEVSVKGVLETHFLKCPKPAFQEISSLADSLQLEKEVVRVWFCNRRQKEKR as the variant, how does the abundance fitness read?
The abundance fitness was -0.451 ± 0.26.

With KKRTSIEVSVKGVLETHFLKCPKPALQEISSLADSLQLEKEVVRVWFCNRRQKEKR as the variant, how does the abundance fitness read?
Its abundance fitness is -0.07 ± 0.11.

Which abundance fitness does the source give for KKRTSIEVSVKGVLETHFLKCPKLAAQEISSLADSLQLEKEVVRVWFCNRRQKEKR here?
Its abundance fitness is -0.753 ± 0.26.

Which abundance fitness does the source give for KKATSIEVSVKGVLETHFLKCPKPAAQEISSLADSLQLEKEVVRVWFCNRRQKEKR here?
The abundance fitness was -0.162 ± 0.14.

Which abundance fitness does the source give for KKSTSIEVSVKGVLETHFLKCPKPAAQEISSLADSLQLEKEVVRVWFCNRRQKEKR here?
Its abundance fitness is 0.261 ± 0.12.

With KKRTSIEVSVKGVLETHFLKCPKPAAQEISSLADSLQLEKEVARVWFCNRRQKEKR as the variant, how does the abundance fitness read?
The abundance fitness was -0.692 ± 0.19.

Which abundance fitness does the source give for KKRTSIEVSVKGVLETHFLKCPKPAAQSISSLADSLQLEKEVVRVWFCNRRQKEKR here?
Its abundance fitness is -0.692 ± 0.14.

With KKRTSIEVSVKGVLETHFLKCPKPAAQAISSLADSLQLEKEVVRVWFCNRRQKEKR as the variant, how does the abundance fitness read?
The abundance fitness was -0.657 ± 0.14.

For KKRTSIEVSVKGVLETHFLKCPKPAAQEISSLADSLQLEKEVVRHWFCNRRQKEKR, which abundance fitness is on record?
The abundance fitness was -0.077 ± 0.26.

With KKRTSIEVSVKGVLETHFRKCPKPAAQEISSLADSLQLEKEVVRVWFCNRRQKEKR as the variant, how does the abundance fitness read?
The abundance fitness was -0.236 ± 0.1.

Which abundance fitness does the source give for KKRTSIEVSVKGVLETHFMKCPKPAAQEISSLADSLQLEKEVVRVWFCNRRQKEKR here?
Its abundance fitness is 0.039 ± 0.2.

With KKRTSIEVSVKGVLETHFLKCPKPAAQEISSLADSLCLEKEVVRVWFCNRRQKEKR as the variant, how does the abundance fitness read?
The abundance fitness was -0.198 ± 0.27.

For KKRTSIEVSVKGVLETHFLKCPKPAAQEISSLADSLMLEKEVVRVWFCNRRQKEKR, which abundance fitness is on record?
Its abundance fitness is -0.22 ± 0.32.

Which abundance fitness does the source give for KKRTSIEVSVKGVLETHFLKCPKPAAQEISSLADSLLLEKEVVRVWFCNRRQKEKR here?
Its abundance fitness is -0.664 ± 0.29.

With KKRTSIEVSVKGVLETHFLKCPKPAAQEISSLADSLNLEKEVVRVWFCNRRQKEKR as the variant, how does the abundance fitness read?
Its abundance fitness is 0.071 ± 0.31.

With KKRTSIEVSVKGVLETHFLKCPKPAAQEISMLADSLQLEKEVVRVWFCNRRQKEKR as the variant, how does the abundance fitness read?
Its abundance fitness is 0.096 ± 0.15.

Which abundance fitness does the source give for KKRTSIEVSVKGVLETHFLKCPKPAAQEISQLADSLQLEKEVVRVWFCNRRQKEKR here?
The abundance fitness was -0.031 ± 0.16.

Which abundance fitness does the source give for KKRTSIEVSVKGVLETHFLKCPKPAAQEISKLADSLQLEKEVVRVWFCNRRQKEKR here?
The abundance fitness was 0.022 ± 0.18.

Which abundance fitness does the source give for KKRTSIEVSVKGVLETHFLKCPKPAAQEISPLADSLQLEKEVVRVWFCNRRQKEKR here?
The abundance fitness was -0.913 ± 0.25.

For KKRTSIEVSVKGVLETHFLKCPKPAAQEISSLADSLQLEKEVVRVWFCNRRQKECR, which abundance fitness is on record?
Its abundance fitness is -0.017 ± 0.21.

Which abundance fitness does the source give for KKRTSIEVSVKGVLDTHFLKCPKPAAQEISSLADSLQLEKEVVRVWFCNRRQKEKR here?
The abundance fitness was -0.998 ± 0.41.

For KKRTSIEVSVKGVLITHFLKCPKPAAQEISSLADSLQLEKEVVRVWFCNRRQKEKR, which abundance fitness is on record?
Its abundance fitness is -0.368 ± 0.21.

With KKRTSIEVSVKGVLKTHFLKCPKPAAQEISSLADSLQLEKEVVRVWFCNRRQKEKR as the variant, how does the abundance fitness read?
The abundance fitness was -0.728 ± 0.21.

For KKRTSIEVSVKGVLVTHFLKCPKPAAQEISSLADSLQLEKEVVRVWFCNRRQKEKR, which abundance fitness is on record?
The abundance fitness was -0.756 ± 0.16.
